Experimental data published in FireProtDB (doi:10.1093/hmg/ddv370).
“And” between values parts separate entries of the source, which are not always exact repeats. Equal values may be shown once.

Conditions: Homo sapiens; pH 7.5; Thermal; CD; Tris-HCl; KCl; transition: 2; whole UniProt chain shown

B1: Guanylyl cyclase-activating protein 1 wild type, P43080 (protein)
chain: MGNVMEGKSVEELSSTECHQWYKKFMTECPSGQLTLYEFRQFFGLKNLSPSASQYVEQMFETFDFNKDGYIDFMEYVAALSLVLKGKVEQKLRWYFKLYDVDGNGCIDRDELLTIIQAIRAINPCSDTTMTAEEFTDTVFSKIDVNGDGELSLEEFIEGVQKDQMLLDTLTRSLDLTRIVRRLQNGEQDEEGADEAAEAAG
For B1, the Tm was 50.1 °C and 51.5 °C.
